From publication doi:10.1101/2022.07.14.500127

How the values were obtained:
[1] = target: Vip3Aa Domain I-Domain III truncation variant (Bacillus thuringiensis (Bt 9816C)); test: SEC + other: protein thermal shift
[2] = target: Vip3Aa protoxin (full-length vegetative insecticidal protein Vip3Aa) (Bacillus thuringiensis (Bt 9816C)); test: SEC + other: dynamic light scattering
[3] = target: trypsin-activated DI-DIII of Vip3Aa (DI-DIII^act) (Bacillus thuringiensis (Bt 9816C)); test: SEC

Substance: Vip3Aa Domain I-Domain III truncation variant (domain or fragment)
- stoichiometry N [1]: 4

Substance: Vip3Aa protoxin (full-length vegetative insecticidal protein Vip3Aa) (natural protein)
- stoichiometry N [2]: 4

Substance: trypsin-activated DI-DIII of Vip3Aa (DI-DIII^act) (complex)
- stoichiometry N [3]: 4
